From IntAct's records for PubMed 20042240

B1: Complement factor H (Homo sapiens), P08603 (parent)
chain: MRLLAKIICLMLWAICVAEDCNELPPRRNTEILTGSWSDQTYPEGTQAIYKCRPGYRSLGNVIMVCRKGEWVALNPLRKCQKRPCGHPGDTPFGTFTLTGGNVFEYGVKAVYTCNEGYQLLGEINYRECDTDGWTNDIPICEVVKCLPVTAPENGKIVSSAMEPDREYHFGQAVRFVCNSGYKIEGDEEMHCSDDGFWSKEKPKCVEISCKSPDVINGSPISQKIIYKENERFQYKCNMGYEYSERGDAVCTESGWRPLPSCEEKSCDNPYIPNGDYSPLRIKHRTGDEITYQCRNGFYPATRGNTAKCTSTGWIPAPRCTLKPCDYPDIKHGGLYHENMRRPYFPVAVGKYYSYYCDEHFETPSGSYWDHIHCTQDGWSPAVPCLRKCYFPYLENGYNQNYGRKFVQGKSIDVACHPGYALPKAQTTVTCMENGWSPTPRCIRVKTCSKSSIDIENGFISESQYTYALKEKAKYQCKLGYVTADGETSGSITCGKDGWSAQPTCIKSCDIPVFMNARTKNDFTWFKLNDTLDYECHDGYESNTGSTTGSIVCGYNGWSDLPICYERECELPKIDVHLVPDRKKDQYKVGEVLKFSCKPGFTIVGPNSVQCYHFGLSPDLPICKEQVQSCGPPPELLNGNVKEKTKEEYGHSEVVEYYCNPRFLMKGPNKIQCVDGEWTTLPVCIVEESTCGDIPELEHGWAQLSSPPYYYGDSVEFNCSESFTMIGHRSITCIHGVWTQLPQCVAIDKLKKCKSSNLIILEEHLKNKKEFDHNSNIRYRCRGKEGWIHTVCINGRWDPEVNCSMAQIQLCPPPPQIPNSHNMTTTLNYRDGEKVSVLCQENYLIQEGEEITCKDGRWQSIPLCVEKIPCSQPPQIEHGTINSSRSSQESYAHGTKLSYTCEGGFRISEENETTCYMGKWSSPPQCEGLPCKSPPEISHGVVAHMSDSYQYGEEVTYKCFEGFGIDGPAIAKCLGEKWSHPPSCIKTDCLSLPSFENAIPMGEKKDVYKAGEQVTYTCATYYKMDGASNVTCINSRWTGRPTCRDTSCVNPPTVQNAYIVSRQMSKYPSGERVRYQCRSPYEMFGDEEVMCLNGNWTEPPQCKDSTGKCGPPPPIDNGDITSFPLSVYAPASSVEYQCQNLYQLEGNKRITCRNGQWSEPPKCLHPCVISREIMENYNIALRWTAKQKLYSRTGESVEFVCKRGYRLSSRSHTLRTTCWDGKLEYPTCAKR
partner: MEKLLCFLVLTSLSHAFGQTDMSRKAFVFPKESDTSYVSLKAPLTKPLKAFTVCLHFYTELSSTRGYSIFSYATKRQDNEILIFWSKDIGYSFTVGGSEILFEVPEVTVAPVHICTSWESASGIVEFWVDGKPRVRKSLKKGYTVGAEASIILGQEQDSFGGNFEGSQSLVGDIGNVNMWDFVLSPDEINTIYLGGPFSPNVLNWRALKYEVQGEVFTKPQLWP
B2: Complement factor H-related protein 4 (Homo sapiens), Q92496-1 (parent)
chain: MLLLINVILTLWVSCANGQEVKPCDFPEIQHGGLYYKSLRRLYFPAAAGQSYSYYCDQNFVTPSGSYWDYIHCTQDGWSPTVPCLRTCSKSDVEIENGFISESSSIYILNEETQYNCKPGYATAEGNSSGSITCLQNGWSTQPICIKFCDMPVFENSRAKSNGMWFKLHDTLDYECYDGYESSYGNTTDSIVCGEDGWSHLPTCYNSSENCGPPPPISNGDTTSFPQKVYLPWSRVEYQCQSYYELQGSKYVTCSNGDWSEPPRCISMKPCEFPEIQHGHLYYENTRRPYFPVATGQSYSYYCDQNFVTPSGSYWDYIHCTQDGWLPTVPCLRTCSKSDIEIENGFISESSSIYILNKEIQYKCKPGYATADGNSSGSITCLQNGWSAQPICIKFCDMPVFENSRAKSNGMRFKLHDTLDYECYDGYEISYGNTTGSIVCGEDGWSHFPTCYNSSEKCGPPPPISNGDTTSFLLKVYVPQSRVEYQCQSYYELQGSNYVTCSNGEWSEPPRCIHPCIITEENMNKNNIQLKGKSDIKYYAKTGDTIEFMCKLGYNANTSVLSFQAVCREGIVEYPRCE
partner: B1 partner

Variants of: B1
Conditions: with crp_human CRP

| effect of a mutation on the interaction | Variant |
| --- | --- |
| disrupting interaction strength | E338K |

Variants of: B2
Conditions: with crp_human CRP

| effect of a mutation on the interaction | Variant |
| --- | --- |
| increasing interaction strength | E284K |

Variants of: B2
Conditions: with crp_human CRP
Remark: another data set of the same source

| effect of a mutation on the interaction | Variant |
| --- | --- |
| disrupting interaction strength | S38A;L39A |
| decreasing interaction strength | K37A |
| decreasing interaction strength | R40A;R41A |
| disrupting interaction strength | K37A;R40A;R41A |
| with no effect | S38A |
| decreasing interaction strength | Y35A;Y36A |
| decreasing interaction strength | L39A |
| disrupting interaction strength | K37A;S38A |
| disrupting interaction strength | K37A;S38A;L39A |

Variants of: B2
Conditions: with crp_human CRP
Remark: another data set of the same source

| effect of a mutation on the interaction | Variant |
| --- | --- |
| decreasing interaction strength | S38A;L39A |
| disrupting interaction strength | K37A |
| disrupting interaction strength | R40A;R41A |
| decreasing interaction strength | S38A |
| disrupting interaction strength | Y35A;Y36A |
| with no effect | L39A |

Variants of: B2
Conditions: with crp_human CRP
Remark: another data set of the same source

| effect of a mutation on the interaction | Variant |
| --- | --- |
| decreasing interaction strength | K37E |

Variants of: B2
Conditions: with crp_human CRP
Remark: another data set of the same source

| effect of a mutation on the interaction | Variant |
| --- | --- |
| decreasing interaction strength | K37A;R40A;R41A |
